Test [1] has as its target T1, human calcitonin receptor (human, UniProt P30988 25-474).
T1 construct: whole, on cells; Used as cell membranes; also called hCTR; hCT
T1 sequence (looked up): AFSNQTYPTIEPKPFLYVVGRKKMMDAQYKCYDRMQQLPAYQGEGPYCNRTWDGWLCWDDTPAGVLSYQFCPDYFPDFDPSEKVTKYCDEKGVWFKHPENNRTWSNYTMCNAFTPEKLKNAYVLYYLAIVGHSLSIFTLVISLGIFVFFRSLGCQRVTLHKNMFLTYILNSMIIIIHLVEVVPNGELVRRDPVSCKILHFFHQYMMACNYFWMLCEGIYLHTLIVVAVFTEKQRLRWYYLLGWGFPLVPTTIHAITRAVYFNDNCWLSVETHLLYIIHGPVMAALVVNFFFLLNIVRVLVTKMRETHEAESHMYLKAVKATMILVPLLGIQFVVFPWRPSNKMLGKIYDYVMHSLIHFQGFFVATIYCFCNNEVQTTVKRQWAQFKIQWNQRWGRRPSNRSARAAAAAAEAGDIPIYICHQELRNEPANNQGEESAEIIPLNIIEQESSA
The experiment in a line: SPA competition on BHK cell membranes, 125I-calcitonin as radioligand (Assay VII). An outline of the steps: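 BHK hCTR membranes 35 ng/μL + SPA beads 0.05 mg/well; buffer 50 mM Hepes pH 7.4, 1 mM CaCl2, 5 mM MgCl₂, 0.1% OA, 0.02% Tween20. 120 min, 25° C., shaking. Scintillation count; IC50 by one-site binding competition.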

Test [2] deals with T1, human calcitonin receptor. The test is described as follows: ratio of hCTR IC50 to hAmylin-R IC50 (reference: human amylin receptor). The method, boiled down: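 IC₅₀ values were derived by one-site competition analysis of SPA counts. Cell membranes (35 ng/μL) with SPA beads were incubated with test compounds for 120 min at 25° C in Hepes buffer, pH 7.4, containing CaCl2, MgCl₂, OA and Tween20.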

Test [3] has as its target T2, human calcitonin receptor (human, UniProt P30988 25-474).
T2 construct: whole, on cells; also called hCTR; hCT
T2 sequence (looked up): T1 sequence (looked up)
The experiment in a line: ratio of IC50 at human calcitonin receptor to IC50 at human amylin receptor (SPA competition assays). The method, then: The resulting pellet was resuspended, homogenized and centrifuged (20.000 rpm, 15 min) in a buffer containing 20 mM Na-HEPES and 0.1 mM EDTA (pH 7.4, buffer 2). The resulting pellet was resuspended in buffer 2 and protein concentration was measured (BCA protein Assay, Pierce). The homogenate was kept cold during the whole procedure. The membranes were kept at −80° C. until use. The assay was performed in a 384 well Optiplate (PerkinElmer) in a total volume of 40 ul. Membranes were mixed with SPA beads. Final concentration of membranes 35 ng/μL final and SPA beads was 0.05 mg/well. Test-compounds were dissolved in DMSO and further diluted in assay buffer (50 mM Hepes, pH 7.4, 1 mM CaCl2, 5 mM MgCl₂, 0.1% OA and 0.02% Tween20). […] The final mixture was incubated with shaking at 400 rpm for 120 min at 25° C. prior to centrifugation (1500 rpm, 10 min). Samples were analyzed on TopCounter™ (Packard). The IC₅₀ was calculated using (one site binding competition analysis) GraphPad Prism5 as a measure of receptor affinity.
Membranes were prepared in the following way; the cells were rinsed with PBS and incubated with Versene for approximately 5 min before harvesting. The cells were flushed with PBS and the cell-suspension was centrifuged for 5 min at 1000 rpm. Cells were homogenized (Ultrathurrax) in a buffer containing 20 mM Na-HEPES and 10 mM EDTA (pH 7.4) and centrifuged at 20.000 rpm for 15 min. The resulting pellet was resuspended, homogenized and centrifuged (20.000 rpm, 15 min) in a buffer containing 20 mM Na-HEPES and 0.1 mM EDTA (pH 7.4, buffer 2). The resulting pellet was resuspended in buffer 2 and protein concentration was measured (BCA protein Assay, Pierce). The homogenate was kept cold during the whole procedure. The membranes were kept at −80° C. until use. Assay was performed in a 384 well Optiplate (PerkinElmer) in a total volume of 40 ul. Membranes were mixed with SPA beads.

Test [4] concerns the target T2, human calcitonin receptor. The experiment in a line: SPA radioligand competition (125I-calcitonin), membranes of BHK cells with human calcitonin receptor. The procedure: Membranes were prepared in the following way; the cells were rinsed with PBS and incubated with Versene for approximately 5 min before harvesting. The cells were flushed with PBS and the cell-suspension was centrifuged for 5 min at 1000 rpm. Cells were homogenized (Ultrathurrax) in a buffer containing 20 mM Na-HEPES and 10 mM EDTA (pH 7.4) and centrifuged at 20.000 rpm for 15 min. The resulting pellet was resuspended, homogenized and centrifuged (20.000 rpm, 15 min) in a buffer containing 20 mM Na-HEPES and 0.1 mM EDTA (pH 7.4, buffer 2). The resulting pellet was resuspended in buffer 2 and protein concentration was measured (BCA protein Assay, Pierce). The homogenate was kept cold during the whole procedure. The membranes were kept at −80° C. until use. Assay was performed in a 384 well Optiplate (PerkinElmer) in a total volume of 40 ul. Membranes were mixed with SPA beads. Final concentration of membranes 35 ng/μL final and Final concentration of SPA beads was 0.05 mg/well. Test-compounds were dissolved in DMSO and further diluted in assay buffer (50 mM Hepes, pH 7.4, 1 mM CaCl2, 5 mM MgCl₂, 0.1% OA and 0.02% Tween20). […] The final mixture was incubated for 120 min with shaking at 400 rpm at 25° C. prior to centrifugation (1500 rpm, 10 min). Samples were analyzed on TopCounter™ (Packard). The […] was calculated using (one site binding competition analysis) GraphPad Prism5 as a measure of receptor affinity.
A general note: Displacement assays read how much labelled ligand stays bound in the presence of the test substance.

We go through four molecules from patent US20140087995A1 (published 2014).

Numbered stars: 1 amine (or outer) side, 2 acyl side, 3 side chain; on linkers, the order of the positions; unused ones are H or OH. Bridge positions count the residues as written; N and C are the ends. Side chains are listed from the residue outwards. Ends that are not written are not given here. * marks the point of attachment. C20 diacid = O=C(O)CCCCCCCCCCCCCCCCCCC(=O)*; C18 diacid = O=C(O)CCCCCCCCCCCCCCCCC(=O)*; γGlu = O=C(O)[C@H](CCC(=O)[*:2])N[*:1]; AEEA = NCCOCCOCC(=O)O

B1: N^ε1-[(4S)-4-carboxy-4-(17-carboxyheptadecanoylamino)butanoyl]-[Arg17,Pro21,Pro27,His34]-h-amylin (peptide)
peptide: K([γGlu-C18 diacid])CNTATCATQRLANFLRHSSPNFGAIPSSTNVGHNTY-NH2
modifications: disulfide 2-7; N-terminus assumed
SMILES: CC[C@H](C)[C@H](NC(=O)[C@H](C)NC(=O)CNC(=O)[C@H](Cc1ccccc1)NC(=O)[C@H](CC(N)=O)NC(=O)[C@@H]1CCCN1C(=O)[C@H](CO)NC(=O)[C@H](CO)NC(=O)[C@H](Cc1c[nH]cn1)NC(=O)[C@H](CCCNC(=N)N)NC(=O)[C@H](CC(C)C)NC(=O)[C@H](Cc1ccccc1)NC(=O)[C@H](CC(N)=O)NC(=O)[C@H](C)NC(=O)[C@H](CC(C)C)NC(=O)[C@H](CCCNC(=N)N)NC(=O)[C@H](CCC(N)=O)NC(=O)[C@@H](NC(=O)[C@H](C)NC(=O)[C@@H]1CSSC[C@H](NC(=O)[C@@H](N)CCCCNC(=O)CC[C@H](NC(=O)CCCCCCCCCCCCCCCCC(=O)O)C(=O)O)C(=O)N[C@@H](CC(N)=O)C(=O)N[C@@H]([C@@H](C)O)C(=O)N[C@@H](C)C(=O)N[C@@H]([C@@H](C)O)C(=O)N1)[C@@H](C)O)C(=O)N1CCC[C@H]1C(=O)N[C@@H](CO)C(=O)N[C@@H](CO)C(=O)N[C@H](C(=O)N[C@@H](CC(N)=O)C(=O)N[C@H](C(=O)NCC(=O)N[C@@H](Cc1c[nH]cn1)C(=O)N[C@@H](CC(N)=O)C(=O)N[C@H](C(=O)N[C@@H](Cc1ccc(O)cc1)C(N)=O)[C@@H](C)O)C(C)C)[C@@H](C)O
In the case of B1, the half-inhibitory concentration (IC50) (in general, the midpoint of a concentration-inhibition curve) in test [1] amounted to 0.0227 µM. In test [2], the “Ratio hCT/hAmylin binding” value came to 59.4.

B2: N^ε1-[2-[2-[2-[[(4S)-4-carboxy-4-(19-carboxynonadecanoylamino)butanoyl]amino]ethoxy]ethoxy]acetyl]-[Arg17,Pro21,Pro27,His34]-h-amylin (peptide)
peptide: K([AEEA-γGlu-C20 diacid])CNTATCATQRLANFLRHSSPNFGAIPSSTNVGHNTY-NH2
modifications: disulfide 2-7; N-terminus assumed
SMILES: CC[C@H](C)[C@H](NC(=O)[C@H](C)NC(=O)CNC(=O)[C@H](Cc1ccccc1)NC(=O)[C@H](CC(N)=O)NC(=O)[C@@H]1CCCN1C(=O)[C@H](CO)NC(=O)[C@H](CO)NC(=O)[C@H](Cc1c[nH]cn1)NC(=O)[C@H](CCCNC(=N)N)NC(=O)[C@H](CC(C)C)NC(=O)[C@H](Cc1ccccc1)NC(=O)[C@H](CC(N)=O)NC(=O)[C@H](C)NC(=O)[C@H](CC(C)C)NC(=O)[C@H](CCCNC(=N)N)NC(=O)[C@H](CCC(N)=O)NC(=O)[C@@H](NC(=O)[C@H](C)NC(=O)[C@@H]1CSSC[C@H](NC(=O)[C@@H](N)CCCCNC(=O)COCCOCCNC(=O)CC[C@H](NC(=O)CCCCCCCCCCCCCCCCCCC(=O)O)C(=O)O)C(=O)N[C@@H](CC(N)=O)C(=O)N[C@@H]([C@@H](C)O)C(=O)N[C@@H](C)C(=O)N[C@@H]([C@@H](C)O)C(=O)N1)[C@@H](C)O)C(=O)N1CCC[C@H]1C(=O)N[C@@H](CO)C(=O)N[C@@H](CO)C(=O)N[C@H](C(=O)N[C@@H](CC(N)=O)C(=O)N[C@H](C(=O)NCC(=O)N[C@@H](Cc1c[nH]cn1)C(=O)N[C@@H](CC(N)=O)C(=O)N[C@H](C(=O)N[C@@H](Cc1ccc(O)cc1)C(N)=O)[C@@H](C)O)C(C)C)[C@@H](C)O
notes: also called compound 76
Take B2: the “Ratio hCT/hAmylin binding” value in test [3] was 80. In test [4], the IC50 came to 0.0172 µM.

B3: N^ε1-[2-[2-[2-[[2-[2-[2-[[(4S)-4-carboxy-4-(19-carboxynonadecanoylamino)butanoyl]amino]ethoxy]ethoxy]acetyl]amino]ethoxy]ethoxy]acetyl]-[Arg17,Pro21,Pro27,Arg34 … (peptide)
peptide: K([AEEA-AEEA-γGlu-C20 diacid])CNTATCATQRLANFLRHSSPNFGAIPSSTNVGRNTY-NH2
modifications: disulfide 2-7; N-terminus assumed
SMILES: CC[C@H](C)[C@H](NC(=O)[C@H](C)NC(=O)CNC(=O)[C@H](Cc1ccccc1)NC(=O)[C@H](CC(N)=O)NC(=O)[C@@H]1CCCN1C(=O)[C@H](CO)NC(=O)[C@H](CO)NC(=O)[C@H](Cc1c[nH]cn1)NC(=O)[C@H](CCCNC(=N)N)NC(=O)[C@H](CC(C)C)NC(=O)[C@H](Cc1ccccc1)NC(=O)[C@H](CC(N)=O)NC(=O)[C@H](C)NC(=O)[C@H](CC(C)C)NC(=O)[C@H](CCCNC(=N)N)NC(=O)[C@H](CCC(N)=O)NC(=O)[C@@H](NC(=O)[C@H](C)NC(=O)[C@@H]1CSSC[C@H](NC(=O)[C@@H](N)CCCCNC(=O)COCCOCCNC(=O)COCCOCCNC(=O)CC[C@H](NC(=O)CCCCCCCCCCCCCCCCCCC(=O)O)C(=O)O)C(=O)N[C@@H](CC(N)=O)C(=O)N[C@@H]([C@@H](C)O)C(=O)N[C@@H](C)C(=O)N[C@@H]([C@@H](C)O)C(=O)N1)[C@@H](C)O)C(=O)N1CCC[C@H]1C(=O)N[C@@H](CO)C(=O)N[C@@H](CO)C(=O)N[C@H](C(=O)N[C@@H](CC(N)=O)C(=O)N[C@H](C(=O)NCC(=O)N[C@@H](CCCNC(=N)N)C(=O)N[C@@H](CC(N)=O)C(=O)N[C@H](C(=O)N[C@@H](Cc1ccc(O)cc1)C(N)=O)[C@@H](C)O)C(C)C)[C@@H](C)O
notes: also called compound 95
On to B3, for which, in test [3], the “Ratio hCT/hAmylin binding” value amounted to 63.4. Moreover, the IC50 in test [4] amounted to 0.0613 µM.

B4: N^ε1-[2-[2-[2-(19-carboxynonadecanoylamino)ethoxy]ethoxy]acetyl]-[His14,Arg17,Pro21,Pro27]-h-amylin (peptide)
peptide: K([AEEA-C20 diacid])CNTATCATQRLAHFLRHSSPNFGAIPSSTNVGSNTY-NH2
modifications: disulfide 2-7; N-terminus assumed
SMILES: CC[C@H](C)[C@H](NC(=O)[C@H](C)NC(=O)CNC(=O)[C@H](Cc1ccccc1)NC(=O)[C@H](CC(N)=O)NC(=O)[C@@H]1CCCN1C(=O)[C@H](CO)NC(=O)[C@H](CO)NC(=O)[C@H](Cc1c[nH]cn1)NC(=O)[C@H](CCCNC(=N)N)NC(=O)[C@H](CC(C)C)NC(=O)[C@H](Cc1ccccc1)NC(=O)[C@H](Cc1c[nH]cn1)NC(=O)[C@H](C)NC(=O)[C@H](CC(C)C)NC(=O)[C@H](CCCNC(=N)N)NC(=O)[C@H](CCC(N)=O)NC(=O)[C@@H](NC(=O)[C@H](C)NC(=O)[C@@H]1CSSC[C@H](NC(=O)[C@@H](N)CCCCNC(=O)COCCOCCNC(=O)CCCCCCCCCCCCCCCCCCC(=O)O)C(=O)N[C@@H](CC(N)=O)C(=O)N[C@@H]([C@@H](C)O)C(=O)N[C@@H](C)C(=O)N[C@@H]([C@@H](C)O)C(=O)N1)[C@@H](C)O)C(=O)N1CCC[C@H]1C(=O)N[C@@H](CO)C(=O)N[C@@H](CO)C(=O)N[C@H](C(=O)N[C@@H](CC(N)=O)C(=O)N[C@H](C(=O)NCC(=O)N[C@@H](CO)C(=O)N[C@@H](CC(N)=O)C(=O)N[C@H](C(=O)N[C@@H](Cc1ccc(O)cc1)C(N)=O)[C@@H](C)O)C(C)C)[C@@H](C)O
notes: also called compound 90
B4: the “Ratio hCT/hAmylin binding” value in test [3] worked out at 42.2. Moreover, in test [4], the IC50 is 0.00257 µM.
